Patent US20220041665A1, “POLYNUCLEOTIDE AND USES THEREOF” (Helsingin yliopisto, priority 2019, published 2022)

Key:
Format in all cases: cell-based, human
[1] = system: seipin-mEGFP; assay: FACS screen of auxin perceptive proteins and degrons (mean GFP intensity) in A431 cell pools
Procedure: To search for an improved AID system to solve the issue, a pipeline was first established in human A431 cells to screen AID components (FIG. 2A). Various auxin perceptive proteins and degrons were selected for screening. Several TIR1 and AFB2 proteins from different plant species were tested, as well as degrons derived from AtIAA17 (SEQ ID NO: 3), these including amino acid (aa.) 65-132 (miniAID), aa. 62-109, aa. 71-114. All these degrons were included in the screen. […] These high affinity fragments were tested, assuming higher affinity might translate into more efficient inducible degradation. Degrons with KR dipeptide deletions were tested to see if they would have an effect on enhancing IAA binding affinity, IAA-inducible depletion or as part of a nuclear localization signal. PB1 domain of the AUX/IAA proteins has not been implicated in auxin-inducible degradation, so several other degrons with PB1 domain sequences homologous to miniAID were also tested.
A431 cell pools were generated to stably express different combinations of auxin perceptive protein and degron-fused seipin. Cells were cotransfected with a mixture of three vectors composed of pSH-EFIRES-P expressing an auxin perceptive protein, pSH-EFIRES-B expressing a degron-fused seipin, and pCas9-sgAAVS1 at ratio 3:3:4. Transfected cells were passaged 4-6 h after transfection at 1:5 into 6-well plates. On the next day, cells were selected with 1 μg/ml puromycin (Sigma, P8833) for 2 days, and with 5 μg/ml blasticidin (Gibco, A1113904) for 2 days, then with both antibiotics for at least 6 days before using for FACS analysis.
(§1) For FACS analysis, cells were seeded at 1:5 (for A431) or 1:3 (for A549) into 6-well plate in medium without selection on day 0. On day 1, medium was changed to 2 ml fresh medium without (for 0 h and 1 h IAA samples) or with (for 16 h IAA samples) 0.5 mM IAA. On day 2, the 1 h samples were supplemented with 0.5 ml medium containing 2.5 mM IAA (final 0.5 mM) and incubated for 1 h at 37° C. After treatment, cells were detached with 0.5 ml trypsin at 37° C. for 5-8 min (A549) or 8-12 min (A431), put on ice, and transferred to 1.5 ml Eppendorf tubes containing 0.5 ml serum-free CO2 independent medium (Gibco). The cell suspensions were centrifuged at 4° C., resuspended in 0.3 ml ice-cold serum-free FluoroBrite DMEM (Gibco) and stored on ice prior to FACS analysis. FACS analysis was performed on a BD Influx cell sorter (BD Biosciences-US) with 100 μm nozzle at 4-8° C. using BD FACS Sortware. Cells were gated with SSC, FSC and trigger pulse width for singlets and 100 000 cells were analyzed for each sample. GFP was excited with 488 nm laser and detected with 530/40 detector; mCherry was excited with 561 nm lasers and detected with 615/20 detector. Data was analyzed with BD FACS Sortware. Background subtracted mean fluorescence intensity was used for analysis.

[2] = system: endogenous target proteins tagged with miniIAA7-mEGFP; assay: FACS of mean GFP intensity in cells with endogenously miniIAA7-mEGFP-tagged targets and auxin perceptive proteins
Procedure: as §1
Dynein heavy chain (DHC1) and epidermal growth factor receptor (EGFR) were chosen as the first targets. DHC1 is an essential protein that could not be rapidly depleted by using the OsTIR1-miniAID system in a previous study (Natsume et al., 2016, Cell Rep. 15, 210-218). EGFR is a transmembrane receptor with a canonical function in EGF uptake that can be acutely assessed after protein depletion. Endogenous target loci were tagged homozygously in human cells with miniIAA7-mEGFP through Cas9-mediated homology-directed repair (FIG. 3A). DHC1 was tagged homozygously but it was only possible to tag EGFR heterozygously in A431 cells, likely due to its high copy numbers in this cell type (data not shown). […]
Then the overall performance of the AtAFB2-miniIAA7 system in depleting different endogenous proteins was evaluated. […]

[3] = system: A549 cells with tagged EGFR; assay: EGF uptake in A549 cells with tagged EGFR; settings: EGFR-OsTIR1 cells
Procedure: A549 cells were seeded at 0.4×10^5 cells per 4-well for 3 days. Medium was changed to fresh medium with or without 0.5 mM IAA for 1 h. Cells were washed twice with ice-cold serum free medium with 1% BSA and 0.2 ml of 2 μg/ml Alexa Fluor™ 647 EGF complex (ThermoFisher, E35351) in serum free medium with 1% BSA was added. Cells were further incubated at 37° C. for 20 min before harvesting with trypsin. Samples were kept on ice before FACS analysis. Alexa Fluor™ 647 was excited with 640 nm laser and detected with 720/40 detector, analysing 20 000 cells per sample. Negative control samples were cells incubated in medium without EGF complex. Background subtracted mean fluorescence intensity was used for analysis.

B1: miniIAA7: degron composed of AtIAA7 (SEQ ID NO: 1) amino acids 37-104 (protein, listed as Arabidopsis thaliana)
chain: GFSETVDLMLNLQSNKEGSVDLKNVSAVPKEKTTLKDPSKPPAKAQVVGWPPVRNYRKNMMTQQKTSS
With B1 the “reduction of GFP at 1 h IAA” value ([1]; AtAFB2 expressing cells, 1 h IAA) was “best reduction of GFP” and the “efficiency of protein reduction compared to miniAID” value ([1]; in combination with AtAFB2, 1 h IAA) was “over 3 fold”.

B2: AtAFB2: Arabidopsis thaliana AFB2, auxin perceptive F-box protein (SEQ ID NO: 96) (protein, listed as Arabidopsis thaliana)
chain: MNYFPDEVIEHVFDFVTSHKDRNAISLVCKSWYKIERYSRQKVFIGNCYAINPERLLRRFPCLKSLTLKGKPHFADFNLVPHEWGGFVLPWIEALARSRVGLEELRLKRMVVTDESLELLSRSFVNFKSLVLVSCEGFTTDGLASIAANCRHLRDLDLQENEIDDHRGQWLSCFPDTCTTLVTLNFACLEGETNLVALERLVARSPNLKSLKLNRAVPLDALARLMACAPQIVDLGVGSYENDPDSESYLKLMAVIKKCTSLRSLSGFLEAAPHCLSAFHPICHNLTSLNLSYAAEIHGSHLIKLIQHCKKLQRLWILDSIGDKGLEVVASTCKELQELRVFPSDLLGGGNTAVTEEGLVAISAGCPKLHSILYFCQQMTNAALVTVAKNCPNFIRFRLCILEPNKPDHVTSQPLDEGFGAIVKACKSLRRLSLSGLLTDQVFLYIGMYANQLEMLSIAFAGDTDKGMLYVLNGCKKMKKLEIRDSPFGDTALLADVSKYETMRSLWMSSCEVTLSGCKRLAEKAPWLNVEIINENDNNRMEENGHEGRQKVDKLYLYRTVVGTRMDAPPFVWIL
B2 was tested, and the “target protein level before IAA addition, compared to OsTIR1” value ([1]; miniAID as degron, 0 h IAA) was “over 5 fold”, the basal depletion ([1]; miniAID as degron, 0 h IAA, compared to OsTIR1) was “minimal basal depletion” and the “auxin-inducible depletion at 1 h IAA” value ([1]; miniAID as degron, 1 h IAA (0.5 mM)) was “inefficient”. For the same molecule, the “auxin-inducible depletion at 16 h IAA, compared to OsTIR1” value ([1]; miniAID as degron, 16 h IAA (0.5 mM)) was “similar”, the “auxin-inducible depletion at 1 h IAA and at longer times” value ([2]; DHC1 (A431) and EGFR (A549) tagged with miniIAA7-mEGFP) was “efficient auxin-inducible depletion” and the “basal degradation at 0 h IAA” value ([2]; DHC1 (A431) and EGFR (A549) tagged with miniIAA7-mEGFP, 0 h IAA) was “minimal basal degradation”.

B3: OsTIR1: TIR1 derived from Oryza sativa, auxin perceptive protein (protein)
chain: MTYFPEEVVEHIFSFLPAQRDRNTVSLVCKVWYEIERLSRRGVFVGNCYAVRAGRVAARFPNVRALTVKGKPHFADFNLVPPDWGGYAGPWIEAAARGCHGLEELRMKRMVVSDESLELLARSFPRFRALVLISCEGFSTDGLAAVASHCKLLRELDLQENEVEDRGPRWLSCFPDSCTSLVSLNFACIKGEVNAGSLERLVSRSPNLRSLRLNRSVSVDTLAKILLRTPNLEDLGTGNLTDDFQTESYFKLTSALEKCKMLRSLSGFWDASPVCLSFIYPLCAQLTGLNLSYAPTLDASDLTKMISRCVKLQRLWVLDCISDKGLQVVASSCKDLQELRVFPSDFYVAGYSAVTEEGLVAVSLGCPKLNSLLYFCHQMTNAALVTVAKNCPNFTRFRLCILEPGKPDVVTSQPLDEGFGAIVRECKGLQRLSISGLLTDKVFMYIGKYAKQLEMLSIAFAGDSDKGMMHVMNGCKNLRKLEIRDSPFGDAALLGNFARYETMRSLWMSSCNVTLKGCQVLASKMPMLNVEVINERDGSNEMEENHGDLPKVEKLYVYRTTAGARDDAPNFVKIL
For B3, the “IAA-independent reduction of EGF uptake” value [3] was “severe IAA-independent reduction” and the “basal depletion at 0 h IAA” value ([2]; EGFR-OsTIR1 cells (A549), 0 h IAA) was “severe basal depletion”.
